This note sets out measurements from patent US20080255035A1, “SPARC AND METHODS OF USE THEREOF” (Abraxis BioScience, Inc., priority 2007, published 2008).

For one series, the system named is Colon Cancer (HT29). Description: Colon cancer xenograft, SPARC / Avastin / Abraxane. It is filed as in vivo, athymic nude mice. As to conditions: for tumor growth, single agent therapy versus saline control / tumor growth, addition to Abraxane compared to Abraxane alone: colon cancer cells. On the procedure: (§1) Human breast cancer (FIGS. 7 and 8) and colon cancer cells (FIGS. 9 and 10) were grown in athymic nude mice as xenografts as in EXAMPLES 12 and 13. There were 5 mice in each treatment group. Tumors were treated when they reached 200 mm^3. […] Both wild type (“BIO1”) and Q3 mutant SPARC (“BIO2”) were evaluated. The animals were monitored for survival and xenograft growth as measures of efficacy and body weight change as a measure of toxicity.

In series [1] the test system is Breast Cancer (MDA-MB-231). In words: Breast cancer xenograft, SPARC / Avastin / Abraxane. In kind it is in vivo, athymic nude mice. As to conditions: for tumor growth, addition to Abraxane compared to the other arms: breast cancer cells. How it is done:
as §1

Series [2] relates to HT29 colon cancer xenograft. In words: s.c. human HT29 colon cancer xenograft model, 5-FU with BIO1. In kind it is in vivo, nude mice. On the procedure: To further explore the chemotherapy sensitizing activity of SPARC, the athymic mouse tumor xenograft system was used to assess the sensitization of HT 29 human colocancer cells to 5-flurouracil (“5-FU”).
The cancer cells were implanted subcutaneously bilaterally in athymic mice. The mice were treated with saline or 25 mg/kg of 5-FU (see Table 4). Those animals that received SPARC were treated with wild type polypeptide (SEQ ID NO:1) at a dose of 4 mg/kg, 6 mg/kg or 8 mg/kg (see Table 4). The animals were monitored for survival and xenograft growth as measures of efficacy and body weight change as a measure of toxicity.
On the technique in general: In xenograft studies the graft and the host belong to different species.

Series [3] deals with HUVEC. Description: Transport of paclitaxel across EC monolayers on transwell (HUVEC). It is filed as cell-based, human. The note with it: cell type not specified. On the procedure: A series of experiments were performed to evaluate binding and transport of paclitaxel by human umbilical vein endothelial cells (HUVEC) and human lung microvessel endothelial cells (HLMVEC) for ABX and TAX. Fluorescent paclitaxel (FP) was used as a probe and fluorescent ABX and TAX were formulated with FP to probe the binding and transport of paclitaxel across EC monolayers grown on a transwell apparatus.

Series [4] concerns HUVEC. In words: In vitro angiogenesis assay (TSC CellWorks Angiokit). In kind it is cell-based, human. The note with it: 12 days in culture. On the procedure:
In this system, human umbilical vein endothelial cells (“HUVEC”) are co-cultured with other human cells (fibroblast) in collagen matrix. HUVEC cells initially form small islands within the culture matrix. HUVEC differentiate, proliferate and enter migratory phase during which they move through the matrix and form threadlike tubule structures (9-11 days). These gradually join up and form a network which resemble the capillary bed.
HUVEC cells grown in a three dimensional matrix were treated with various concentration of wild type SPARC polypeptide (SEQ ID NO: 1) or the Q3 mutant SPARC polypeptide (SEQ ID NO: 3). Capillary microtubules were visualized using immunostaining for CD31 after 12 days in culture. FIG. 6 depicts SPARC's concentration dependent effect on neoangiogensis showing characteristic examples of the capillary microtubular density in the absence of SPARC (0 μg/ml), wild type or Q3 SPARC at 10 μg/ml, and wild type or Q3 SPARC at 100 μg/ml.

Regarding “Avastin: angiogenesis inhibitor [reference compound]”, the “Tumor growth inhibition (TGI) relative to Abraxane alone” value in the series with Colon Cancer (HT29) (HT29, SPARC 150 μg/kg 2×/week, Avastin 4 mg/kg twice per week, Abraxane 15 mg/kg every fourth day ×3) is less than 0%; in series [1] (MDA-MB-231, SPARC 150 μg/kg 2×/week, Avastin 4 mg/kg twice per week, Abraxane 15 mg/kg every fourth day ×3), 16%. Moreover, the “tumor growth, single agent therapy versus saline control” value in the series on Colon Cancer (HT29) was “no better than the saline control treatments”.
For the molecule `O=c1[nH]cc(F)c(=O)[nH]1` [5-FU, 5-flurouracil], in series [2] (5-FU 25 mg/kg IP), the “% BWLmax” value is given as −5.8%. Moreover, in series [2] (5-FU 25 mg/kg IP, post-treatment day 25), the “TGI (%)” value is 79.8%.
As for beta-methyl cyclodextrin [BMC], the “effect on transport of paclitaxel from ABX across endothelial monolayers” value in the series on HUVEC [3] is listed as “inhibited”.
On the same count and under the same terms, for `CCN1C(=O)C=CC1=O` [NEM] the value was “inhibited”.

B1: BIO1: wild type SPARC polypeptide (SEQ ID NO: 1) (protein, listed as Homo sapiens)
chain: APQQEALPDETEVVEETVAEVTEVSVGANPVQVEVGEFDDGAEETEEEVVAENPCQNHHCKHGKVCELDENNTPMCVCQDPTSCPAPIGEFEKVCSNDNKTFDSSCHFFATKCTLEGTKKGHKLHLDYIGPCKYIPPCLDSELTEFPLRMRDWLKNVLVTLYERDEDNNLLTEKQKLRVKKIHENEKRLEAGDHPVELLARDFEKNYNMYIFPVHWQFGQLDQHPIDGYLSHTELAPLRAPLIPMEHCTTRFFETCDLDNDKYIALDEWAGCFGIKQKDIDKDLVI
For B1, the “sensitization of the cancer cells to 5-FU” value in series [2] (any of the SPARC concentrations used (4, 6, 8 mg/kg)) is “failed to sensitize”.

B2: SPARC: Secreted Protein, Acidic, Rich in Cysteines, also known as osteonectin; wild type or Q3 not told apart at the place (protein)
chain: B1 chain
Consider B2, for which, in the series on HUVEC [4] (10 μg/ml), the “angiogenic activity (capillary microtubule density, CD31)” value is listed as “proangiogenic”. The “angiogenic activity (capillary microtubule density, CD31)” value in the series on HUVEC [4] (100 μg/ml) was “inhibits angiogenesis”. For the same molecule, in the series with Colon Cancer (HT29), the “tumor growth, addition to Abraxane compared to Abraxane alone” value was “further decreases in tumor growth” and the “tumor growth, single agent therapy versus saline control” value is “no better than the saline control treatments”. Besides, the “tumor growth, addition to Abraxane compared to the other arms” value in series [1] is listed as “marked decreases in tumor growth”.

B3: BIO2: Q3 mutant SPARC (SEQ ID NO: 3), deletion of the third glutamine in mature human SPARC (protein, listed as Homo sapiens)
chain: APQEALPDETEVVEETVAEVTEVSVGANPVQVEVGEFDDGAEETEEEVVAENPCQNHHCKHGKVCELDENNTPMCVCQDPTSCPAPIGEFEKVCSNDNKTFDSSCHFFATKCTLEGTKKGHKLHLDYIGPCKYIPPCLDSELTEFPLRMRDWLKNVLVTLYERDEDNNLLTEKQKLRVKKIHENEKRLEAGDHPVELLARDFEKNYNMYIFPVHWQFGQLDQHPIDGYLSHTELAPLRAPLIPMEHCTTRFFETCDLDNDKYIALDEWAGCFGIKQKDIDKDLVI
For B3, in the series on Colon Cancer (HT29), the “tumor growth, addition to Abraxane compared to Abraxane alone” value was “fails to slow tumor growth beyond that achieved with Abraxane®”. For the same molecule, the “tumor growth, addition to Abraxane compared to the other arms” value in series [1] was “similar, though blunted, results”.
